From US20190338009A1 (ZEALAND PHARMA A S, published 2019) come the findings set out here.

In assay [1] the target is human glucagon-like peptide 1 receptor (GLP-1R) (human, UniProt P43220 24-463). In words: cell-based or functional assay.
In assay [2] the target is T1, human GLP-2 receptor (hGLP2-R) (human, UniProt O95838 1-553).
T1 sequence (looked up): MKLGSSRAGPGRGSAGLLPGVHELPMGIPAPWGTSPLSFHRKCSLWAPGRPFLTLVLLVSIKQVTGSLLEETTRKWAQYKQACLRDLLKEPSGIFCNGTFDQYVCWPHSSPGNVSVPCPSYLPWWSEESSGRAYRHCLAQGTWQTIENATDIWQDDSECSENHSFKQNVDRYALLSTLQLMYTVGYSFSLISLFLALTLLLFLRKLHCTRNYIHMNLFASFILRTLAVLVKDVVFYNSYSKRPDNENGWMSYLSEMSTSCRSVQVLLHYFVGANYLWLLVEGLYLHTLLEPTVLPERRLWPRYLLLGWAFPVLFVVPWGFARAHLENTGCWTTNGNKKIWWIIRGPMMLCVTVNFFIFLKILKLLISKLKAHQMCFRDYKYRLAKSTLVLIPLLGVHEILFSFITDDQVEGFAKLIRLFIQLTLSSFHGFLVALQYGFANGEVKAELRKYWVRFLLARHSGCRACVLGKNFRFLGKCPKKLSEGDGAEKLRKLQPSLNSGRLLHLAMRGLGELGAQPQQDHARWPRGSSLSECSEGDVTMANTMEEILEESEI
The experiment in a line: cell-based or functional assay.

Square brackets hold non-standard residues; d marks the D form. Aib = CC(C)(N)C(=O)O

B1: Compound 1 (peptide)
peptide: H-H[Aib]EGSFTSELATILDEQAARDFIAWLIAHKITD-OH
SMILES: CC[C@H](C)[C@H](NC(=O)[C@H](CC(C)C)NC(=O)[C@H](Cc1c[nH]c2ccccc12)NC(=O)[C@H](C)NC(=O)[C@@H](NC(=O)[C@H](Cc1ccccc1)NC(=O)[C@H](CC(=O)O)NC(=O)[C@H](CCCNC(=N)N)NC(=O)[C@H](C)NC(=O)[C@H](C)NC(=O)[C@H](CCC(N)=O)NC(=O)[C@H](CCC(=O)O)NC(=O)[C@H](CC(=O)O)NC(=O)[C@H](CC(C)C)NC(=O)[C@@H](NC(=O)[C@@H](NC(=O)[C@H](C)NC(=O)[C@H](CC(C)C)NC(=O)[C@H](CCC(=O)O)NC(=O)[C@H](CO)NC(=O)[C@@H](NC(=O)[C@H](Cc1ccccc1)NC(=O)[C@H](CO)NC(=O)CNC(=O)[C@H](CCC(=O)O)NC(=O)C(C)(C)NC(=O)[C@@H](N)Cc1c[nH]cn1)[C@@H](C)O)[C@@H](C)O)[C@@H](C)CC)[C@@H](C)CC)C(=O)N[C@@H](C)C(=O)N[C@@H](Cc1c[nH]cn1)C(=O)N[C@@H](CCCCN)C(=O)N[C@H](C(=O)N[C@H](C(=O)N[C@@H](CC(=O)O)C(=O)O)[C@@H](C)O)[C@@H](C)CC
In the case of B1, the “EC50 GLP-1 (nM); cAMP AlphaScreen, HEK293 cells expressing human GLP-1R” value (“EC50 GLP-1 (nM); cAMP AlphaScreen” below) in assay [1] came out at 0.014 nM. For the same molecule, in assay [2], the “EC50 GLP-2 (nM); cAMP AlphaScreen, HEK293 cells expressing human GLP-2R” value (“EC50 GLP-2 (nM); cAMP AlphaScreen” for short) was determined as 0.036 nM.

B2: Compound 27 (peptide)
peptide: H-H[Aib]EGTFTSELSTILDEQAARDFIAWLHAQKITD-OH
SMILES: CC[C@H](C)[C@H](NC(=O)[C@H](Cc1ccccc1)NC(=O)[C@H](CC(=O)O)NC(=O)[C@H](CCCNC(=N)N)NC(=O)[C@H](C)NC(=O)[C@H](C)NC(=O)[C@H](CCC(N)=O)NC(=O)[C@H](CCC(=O)O)NC(=O)[C@H](CC(=O)O)NC(=O)[C@H](CC(C)C)NC(=O)[C@@H](NC(=O)[C@@H](NC(=O)[C@H](CO)NC(=O)[C@H](CC(C)C)NC(=O)[C@H](CCC(=O)O)NC(=O)[C@H](CO)NC(=O)[C@@H](NC(=O)[C@H](Cc1ccccc1)NC(=O)[C@@H](NC(=O)CNC(=O)[C@H](CCC(=O)O)NC(=O)C(C)(C)NC(=O)[C@@H](N)Cc1c[nH]cn1)[C@@H](C)O)[C@@H](C)O)[C@@H](C)O)[C@@H](C)CC)C(=O)N[C@@H](C)C(=O)N[C@@H](Cc1c[nH]c2ccccc12)C(=O)N[C@@H](CC(C)C)C(=O)N[C@@H](Cc1c[nH]cn1)C(=O)N[C@@H](C)C(=O)N[C@@H](CCC(N)=O)C(=O)N[C@@H](CCCCN)C(=O)N[C@H](C(=O)N[C@H](C(=O)N[C@@H](CC(=O)O)C(=O)O)[C@@H](C)O)[C@@H](C)CC
Turning to B2, in assay [1], the “EC50 GLP-1 (nM); cAMP AlphaScreen” value turned out to be 0.12 nM. The “EC50 GLP-2 (nM); cAMP AlphaScreen” value in assay [2] came out at 0.37 nM.

B3: Compound 23 (peptide)
peptide: H-H[Aib]EGSFTSELATILDEQAARDFIAWLYEHKITD-OH
SMILES: CC[C@H](C)[C@H](NC(=O)[C@H](Cc1ccccc1)NC(=O)[C@H](CC(=O)O)NC(=O)[C@H](CCCNC(=N)N)NC(=O)[C@H](C)NC(=O)[C@H](C)NC(=O)[C@H](CCC(N)=O)NC(=O)[C@H](CCC(=O)O)NC(=O)[C@H](CC(=O)O)NC(=O)[C@H](CC(C)C)NC(=O)[C@@H](NC(=O)[C@@H](NC(=O)[C@H](C)NC(=O)[C@H](CC(C)C)NC(=O)[C@H](CCC(=O)O)NC(=O)[C@H](CO)NC(=O)[C@@H](NC(=O)[C@H](Cc1ccccc1)NC(=O)[C@H](CO)NC(=O)CNC(=O)[C@H](CCC(=O)O)NC(=O)C(C)(C)NC(=O)[C@@H](N)Cc1c[nH]cn1)[C@@H](C)O)[C@@H](C)O)[C@@H](C)CC)C(=O)N[C@@H](C)C(=O)N[C@@H](Cc1c[nH]c2ccccc12)C(=O)N[C@@H](CC(C)C)C(=O)N[C@@H](Cc1ccc(O)cc1)C(=O)N[C@@H](CCC(=O)O)C(=O)N[C@@H](Cc1c[nH]cn1)C(=O)N[C@@H](CCCCN)C(=O)N[C@H](C(=O)N[C@H](C(=O)N[C@@H](CC(=O)O)C(=O)O)[C@@H](C)O)[C@@H](C)CC
For B3, the “EC50 GLP-1 (nM); cAMP AlphaScreen” value in assay [1] came out at 0.12 nM. For the same molecule, the “EC50 GLP-2 (nM); cAMP AlphaScreen” value in assay [2] amounted to 0.034 nM.

B4: Compound 25 (peptide)
peptide: H-H[Aib]EGSFTSELATILDEQAARDFIAWLIAQKITD-OH
SMILES: CC[C@H](C)[C@H](NC(=O)[C@H](CC(C)C)NC(=O)[C@H](Cc1c[nH]c2ccccc12)NC(=O)[C@H](C)NC(=O)[C@@H](NC(=O)[C@H](Cc1ccccc1)NC(=O)[C@H](CC(=O)O)NC(=O)[C@H](CCCNC(=N)N)NC(=O)[C@H](C)NC(=O)[C@H](C)NC(=O)[C@H](CCC(N)=O)NC(=O)[C@H](CCC(=O)O)NC(=O)[C@H](CC(=O)O)NC(=O)[C@H](CC(C)C)NC(=O)[C@@H](NC(=O)[C@@H](NC(=O)[C@H](C)NC(=O)[C@H](CC(C)C)NC(=O)[C@H](CCC(=O)O)NC(=O)[C@H](CO)NC(=O)[C@@H](NC(=O)[C@H](Cc1ccccc1)NC(=O)[C@H](CO)NC(=O)CNC(=O)[C@H](CCC(=O)O)NC(=O)C(C)(C)NC(=O)[C@@H](N)Cc1c[nH]cn1)[C@@H](C)O)[C@@H](C)O)[C@@H](C)CC)[C@@H](C)CC)C(=O)N[C@@H](C)C(=O)N[C@@H](CCC(N)=O)C(=O)N[C@@H](CCCCN)C(=O)N[C@H](C(=O)N[C@H](C(=O)N[C@@H](CC(=O)O)C(=O)O)[C@@H](C)O)[C@@H](C)CC
With B4, the “EC50 GLP-1 (nM); cAMP AlphaScreen” value in assay [1] amounted to 0.008 nM. The “EC50 GLP-2 (nM); cAMP AlphaScreen” value in assay [2] is 0.062 nM.

B5: Compound 26 (peptide)
peptide: H-H[Aib]EGTFTSELATILDEQAARDFIAWLQAQKITD-OH
SMILES: CC[C@H](C)[C@H](NC(=O)[C@H](Cc1ccccc1)NC(=O)[C@H](CC(=O)O)NC(=O)[C@H](CCCNC(=N)N)NC(=O)[C@H](C)NC(=O)[C@H](C)NC(=O)[C@H](CCC(N)=O)NC(=O)[C@H](CCC(=O)O)NC(=O)[C@H](CC(=O)O)NC(=O)[C@H](CC(C)C)NC(=O)[C@@H](NC(=O)[C@@H](NC(=O)[C@H](C)NC(=O)[C@H](CC(C)C)NC(=O)[C@H](CCC(=O)O)NC(=O)[C@H](CO)NC(=O)[C@@H](NC(=O)[C@H](Cc1ccccc1)NC(=O)[C@@H](NC(=O)CNC(=O)[C@H](CCC(=O)O)NC(=O)C(C)(C)NC(=O)[C@@H](N)Cc1c[nH]cn1)[C@@H](C)O)[C@@H](C)O)[C@@H](C)O)[C@@H](C)CC)C(=O)N[C@@H](C)C(=O)N[C@@H](Cc1c[nH]c2ccccc12)C(=O)N[C@@H](CC(C)C)C(=O)N[C@@H](CCC(N)=O)C(=O)N[C@@H](C)C(=O)N[C@@H](CCC(N)=O)C(=O)N[C@@H](CCCCN)C(=O)N[C@H](C(=O)N[C@H](C(=O)N[C@@H](CC(=O)O)C(=O)O)[C@@H](C)O)[C@@H](C)CC
In the case of B5, the “EC50 GLP-1 (nM); cAMP AlphaScreen” value in assay [1] stood at 0.013 nM. The “EC50 GLP-2 (nM); cAMP AlphaScreen” value in assay [2] worked out at 0.19 nM.

B6: Compound 28 (peptide)
peptide: H-H[Aib]EGSFTSELATILDEQAARDFIAWLYAHKITD-OH
SMILES: CC[C@H](C)[C@H](NC(=O)[C@H](Cc1ccccc1)NC(=O)[C@H](CC(=O)O)NC(=O)[C@H](CCCNC(=N)N)NC(=O)[C@H](C)NC(=O)[C@H](C)NC(=O)[C@H](CCC(N)=O)NC(=O)[C@H](CCC(=O)O)NC(=O)[C@H](CC(=O)O)NC(=O)[C@H](CC(C)C)NC(=O)[C@@H](NC(=O)[C@@H](NC(=O)[C@H](C)NC(=O)[C@H](CC(C)C)NC(=O)[C@H](CCC(=O)O)NC(=O)[C@H](CO)NC(=O)[C@@H](NC(=O)[C@H](Cc1ccccc1)NC(=O)[C@H](CO)NC(=O)CNC(=O)[C@H](CCC(=O)O)NC(=O)C(C)(C)NC(=O)[C@@H](N)Cc1c[nH]cn1)[C@@H](C)O)[C@@H](C)O)[C@@H](C)CC)C(=O)N[C@@H](C)C(=O)N[C@@H](Cc1c[nH]c2ccccc12)C(=O)N[C@@H](CC(C)C)C(=O)N[C@@H](Cc1ccc(O)cc1)C(=O)N[C@@H](C)C(=O)N[C@@H](Cc1c[nH]cn1)C(=O)N[C@@H](CCCCN)C(=O)N[C@H](C(=O)N[C@H](C(=O)N[C@@H](CC(=O)O)C(=O)O)[C@@H](C)O)[C@@H](C)CC
Turning to B6, the “EC50 GLP-1 (nM); cAMP AlphaScreen” value in assay [1] was determined as 0.11 nM. In addition, the “EC50 GLP-2 (nM); cAMP AlphaScreen” value in assay [2] came to 0.024 nM.

B7: Compound 24 (peptide)
peptide: H-H[Aib]EGSFTSELATILDEQAARDFIAWLQAHKITD-OH
SMILES: CC[C@H](C)[C@H](NC(=O)[C@H](Cc1ccccc1)NC(=O)[C@H](CC(=O)O)NC(=O)[C@H](CCCNC(=N)N)NC(=O)[C@H](C)NC(=O)[C@H](C)NC(=O)[C@H](CCC(N)=O)NC(=O)[C@H](CCC(=O)O)NC(=O)[C@H](CC(=O)O)NC(=O)[C@H](CC(C)C)NC(=O)[C@@H](NC(=O)[C@@H](NC(=O)[C@H](C)NC(=O)[C@H](CC(C)C)NC(=O)[C@H](CCC(=O)O)NC(=O)[C@H](CO)NC(=O)[C@@H](NC(=O)[C@H](Cc1ccccc1)NC(=O)[C@H](CO)NC(=O)CNC(=O)[C@H](CCC(=O)O)NC(=O)C(C)(C)NC(=O)[C@@H](N)Cc1c[nH]cn1)[C@@H](C)O)[C@@H](C)O)[C@@H](C)CC)C(=O)N[C@@H](C)C(=O)N[C@@H](Cc1c[nH]c2ccccc12)C(=O)N[C@@H](CC(C)C)C(=O)N[C@@H](CCC(N)=O)C(=O)N[C@@H](C)C(=O)N[C@@H](Cc1c[nH]cn1)C(=O)N[C@@H](CCCCN)C(=O)N[C@H](C(=O)N[C@H](C(=O)N[C@@H](CC(=O)O)C(=O)O)[C@@H](C)O)[C@@H](C)CC
As for B7, in assay [1], the “EC50 GLP-1 (nM); cAMP AlphaScreen” value came out at 0.042 nM. Besides, the “EC50 GLP-2 (nM); cAMP AlphaScreen” value in assay [2] was found to be 0.049 nM.
